Drawing on the Immune Epitope Database (IEDB), this text covers Kd for 51 sequences.

A value given as a limit tells only on which side of the number the result lay.

In general, Kd refers to the free concentration of one partner at which half of the binding sites on the other are occupied at equilibrium, for simple one-to-one binding.

The target of one experiment is HLA-B*15:01. Description: IEDB peptide-MHC binding, purified MHC/direct/fluorescence; filed as Kd, often an IC50 or EC50 that approximates it; ≥ and ≤ were set here for values at or beyond the usual limits of such assays. Conditions: source organism: Mammarenavirus juninense.
The target in the next experiment is HLA-A*30:01. Nature of the experiment: IEDB peptide-MHC binding, purified MHC/competitive/radioactivity; filed as Kd, often an IC50 or EC50 that approximates it; ≥ and ≤ were set here for values at or beyond the usual limits of such assays.
The next experiment deals with HLA-A*24:02. The experiment is described as above.
The target of the next experiment is HLA-A*23:01. The description is as above.
Experiment [1] has as its target HLA-A*01:01. Description: IEDB peptide-MHC binding, purified MHC/direct/fluorescence; filed as Kd, often an IC50 or EC50 that approximates it; ≥ and ≤ were set here for values at or beyond the usual limits of such assays.
A further experiment has as its target HLA-A*29:02. Nature of the experiment: IEDB peptide-MHC binding, purified MHC/competitive/radioactivity; filed as Kd, often an IC50 or EC50 that approximates it; ≥ and ≤ were set here for values at or beyond the usual limits of such assays.
The next experiment addresses HLA-A*69:01. Description: IEDB peptide-MHC binding, purified MHC/direct/fluorescence; filed as Kd, often an IC50 or EC50 that approximates it; ≥ and ≤ were set here for values at or beyond the usual limits of such assays.
The target in experiment [2] is HLA-A*01:01. Description: IEDB peptide-MHC binding, purified MHC/competitive/radioactivity; filed as Kd, often an IC50 or EC50 that approximates it; ≥ and ≤ were set here for values at or beyond the usual limits of such assays.
Experiment [3] concerns the target HLA-A*03:01. The experiment is described as above. Conditions: source organism: Dengue virus 1 Brazil/97-11/1997.
The target in a further experiment is HLA-A*02:02. Described as above. The following applies: source organism: SARS coronavirus Tor2.
The target of another experiment is HLA-A*02:03. The description is as above. The following applies: source organism: SARS coronavirus Tor2.
A further experiment addresses HLA-A*02:06. Described as above.
The target of experiment [4] is HLA-A*03:01. Description: IEDB peptide-MHC binding, purified MHC/direct/fluorescence; filed as Kd, often an IC50 or EC50 that approximates it; ≥ and ≤ were set here for values at or beyond the usual limits of such assays.
The next experiment addresses HLA-A*02:01. Described as above.
For the next experiment, the target named is HLA-B*44:02. Description: IEDB peptide-MHC binding, purified MHC/competitive/radioactivity; filed as Kd, often an IC50 or EC50 that approximates it; ≥ and ≤ were set here for values at or beyond the usual limits of such assays.
A further experiment addresses HLA-A*30:02. The description is as above. Conditions: source organism: Dengue virus 1 Brazil/97-11/1997.
The next experiment deals with HLA-A*26:01. The experiment is described as above. Conditions: source organism: Dengue virus 1 Brazil/97-11/1997.
Setting [5] is: source organism: Dengue virus 2 Jamaica/1409/1983.
The mark [6] stands for this setting: source organism: Dengue virus 4 Philippines/H241/1956.
Where [7] appears, read: source organism: Dengue virus 3 Martinique/1243/1999.
[8] abbreviates: source organism: Vaccinia virus WR.
Setting [9] is: source organism: Lassa virus Josiah.
Where [10] appears, read: source organism: Dengue virus 1 Brazil/97-11/1997.
Setting [11] is: source organism: Encephalitozoon cuniculi.
Where [12] appears, read: source organism: Vibrio vulnificus.
[13] abbreviates: source organism: Mammarenavirus guanaritoense.
Setting [14] is: source organism: Salmonella enterica subsp. enterica serovar Paratyphi A.

LLFLPKAAY had a Kd with HLA-B*15:01 of 99.4 nM.

For the sequence LTTRNGEPHM, the Kd with HLA-A*30:01 (setting [5]) was found to be 13700 nM.

For TWLVHKQWF, the equilibrium dissociation constant (Kd) with HLA-A*24:02 (setting [6]) was 302 nM; in the experiment with HLA-A*23:01 (setting [6]), 282 nM.

For the sequence NAICSAVPVH, in the experiment with HLA-A*30:01 (setting [7]), the Kd turned out to be 2950 nM.

On to KVKNHIPNI, for which, in the experiment with HLA-A*30:01 (setting [8]), the Kd was 0.684 nM.

QSDTVFDYY: the Kd with HLA-A*24:02 (setting [8]) was at least 72700 nM; with HLA-A*23:01 (setting [8]), at least 32500 nM.

Turning to NMDRAVKLY, the Kd with HLA-A*01:01 [1] (source organism: Influenza A virus (A/Hong Kong/488/97(H5N1))) amounted to 584 nM.

As to HWPKSHTLW, the dissociation constant (Kd) with HLA-A*24:02 (setting [5]) came out at 1170 nM.

For GAKIIHRYA, the Kd with HLA-A*30:01 (setting [8]) worked out at 118 nM.

In the experiment with HLA-A*01:01 [1] (source organism: Mammarenavirus juninense), NLITCNDHY displayed a Kd of at least 20000 nM.

Turning to KARCNHLTK, the Kd in the experiment with HLA-A*30:01 (setting [8]) turned out to be 0.214 nM.

Turning to YQPSSGCYI, the values for the equilibrium dissociation constant (Kd) in the experiment with HLA-A*24:02 (setting [9]), in the experiment with HLA-A*29:02 (setting [9]) and with HLA-A*23:01 (setting [9]) were 7220 nM, 14500 nM and 5410 nM, respectively.

For the sequence VLCPYMPKV, the Kd in the experiment with HLA-A*69:01 (source organism: West Nile virus) was 1610 nM.

INRFTMKHK: the dissociation constant (Kd) with HLA-A*30:01 (setting [5]) was found to be 7950 nM.

As for CSRCLSLFY, the Kd with HLA-A*30:01 (setting [8]) is 22.1 nM.

For YSQVNPLTL, in the experiment with HLA-A*01:01 [2] (setting [10]), the Kd turned out to be 1010 nM.

For the sequence RRRTAGMII, the Kd in the experiment with HLA-A*30:01 (source organism: Dengue virus 2 Peru/IQT2913/1996) was found to be 4830 nM.

Turning to VVRVQRPAK, the Kd was 22.4 nM with HLA-A*30:01 (setting [10]) and 126 nM with HLA-A*03:01 [3].

As to LFSGVSWTM, the Kd in the experiment with HLA-A*24:02 (setting [10]) came out at 449 nM.

Take QWFVERNMVI: the Kd with HLA-A*24:02 (setting [7]) was found to be 121 nM; in the experiment with HLA-A*23:01 (setting [7]) it was 111 nM.

Regarding GLMWLSYFV, the Kd was 0.199 nM with HLA-A*02:02; 0.82 nM in the experiment with HLA-A*02:03; 0.975 nM in the experiment with HLA-A*02:06 (source organism: SARS coronavirus Tor2); at least 33000 nM with HLA-A*03:01 [4] (source organism: SARS-CoV1); 347 nM in the experiment with HLA-A*69:01 (source organism: SARS-CoV1); 3190 nM with HLA-A*02:01 (source organism: SARS-CoV1).

In the case of MWHVTRGAVL, the equilibrium dissociation constant (Kd) in the experiment with HLA-A*24:02 (setting [5]) was 1690 nM; with HLA-A*23:01 (setting [5]), 1460 nM.

Take DFGSVGGLF: in the experiment with HLA-A*24:02 (source organism: Dengue virus 4 Dominica/814669/1981), the Kd was found to be 2640 nM.

With LRFLAIPPTA, the Kd with HLA-A*30:01 (setting [10]) was found to be 3130 nM.

In the case of HEMYWISNG, the Kd in the experiment with HLA-B*44:02 (setting [7]) amounted to 495 nM.

Consider KEMAETQHG, for which, in the experiment with HLA-B*44:02 (setting [6]), the Kd was 143 nM.

On to KMYEYVFKG, for which the Kd was at least 20000 nM with HLA-A*69:01 (setting [11]) and 40.4 nM with HLA-A*02:01 (setting [11]).

Take RLSDPRFSQ: the results for the Kd in the experiment with HLA-A*69:01 (setting [12]) and in the experiment with HLA-A*02:01 (setting [12]) were 121 nM and at least 20000 nM, respectively.

RSKAFSNCY gave a dissociation constant (Kd) with HLA-A*01:01 [1] (source organism: Influenza A virus (A/duck/Ontario/05/00 (H3N2))) of at least 20000 nM.

Turning to TSEIQLTDY, in the experiment with HLA-A*01:01 [2] (setting [10]), the Kd turned out to be 323 nM.

Turning to QGKRTLTPQP, in the experiment with HLA-A*30:01 (setting [7]), the Kd came to 1270 nM.

Consider ITDFVGKTV, for which the Kd in the experiment with HLA-A*01:01 [2] (source organism: Dengue virus 3 Singapore/8120/1995) is at least 39700 nM.

As for KTIWEIPQK, the Kd in the experiment with HLA-A*30:01 (setting [8]) came out at 11.8 nM.

With HVFQEYRLK, the Kd with HLA-A*30:01 (setting [8]) was found to be 26.6 nM.

Sequence FMFGPTIYY yielded a Kd with HLA-A*03:01 [4] (source organism: Entamoeba histolytica HM-1:IMSS) of 43 nM.

For KFKLTLPNK, the Kd with HLA-A*30:01 (setting [8]) was 12.1 nM.

As to TSRNNHLPA, the Kd with HLA-A*30:01 (source organism: Vaccinia virus Copenhagen) was 15.2 nM.

For LFHAFFGAL, the Kd with HLA-A*24:02 (setting [13]) was at least 31900 nM; with HLA-A*29:02 (setting [13]), 3650 nM; in the experiment with HLA-A*23:01 (setting [13]), 12500 nM.

Turning to NEWITDFAG, the Kd in the experiment with HLA-B*44:02 (setting [7]) turned out to be 6550 nM.

As for NFGTFYEHI, the Kd was 1950 nM with HLA-A*24:02 (setting [13]), 400 nM with HLA-A*29:02 (setting [13]) and 451 nM with HLA-A*23:01 (setting [13]).

Consider AQLPRWVAT, for which the figures for the Kd with HLA-A*69:01 (setting [14]) and in the experiment with HLA-A*02:01 (setting [14]) were 7000 nM and 19900 nM, respectively.

Take RSKNTIIIA: the Kd in the experiment with HLA-A*30:01 (setting [8]) is 0.163 nM.

On to LSRKTFDTEY, for which the Kd came out at 503 nM with HLA-A*01:01 [2] (setting [10]) and 975 nM with HLA-A*30:02.

As to KVSCTILAA, in the experiment with HLA-A*30:01 (setting [5]), the Kd came out at 67.7 nM.

RTIMAVLFV: the Kd worked out at 135 nM with HLA-A*30:01 (setting [6]) and 19.4 nM with HLA-A*02:06 (setting [6]).

On to ALTLATGPIT, for which the Kd in the experiment with HLA-A*30:01 (setting [7]) is 159 nM.

In the case of SITLATGPLT, the Kd with HLA-A*30:01 (setting [10]) worked out at 3930 nM.

Take HQYPANLFY: the Kd in the experiment with HLA-A*30:01 (setting [8]) came out at 50.8 nM.

YLAENTFVV yielded a dissociation constant (Kd) with HLA-A*69:01 (source organism: Mycobacterium tuberculosis) of 15.7 nM.

As for PTSEIQLTDY, the Kd with HLA-A*01:01 [2] (setting [10]) is 255 nM; with HLA-A*26:01, at least 69700 nM.

As for RAIASMIMY, the Kd in the experiment with HLA-A*30:01 (setting [8]) is 71.1 nM.
